Assay results from publication PMC3751551.
Substitutions are numbered along the chain they refer to. In names and notes the source's numbering stands.

T1: Vm-EYFP, P05923
T1 chain: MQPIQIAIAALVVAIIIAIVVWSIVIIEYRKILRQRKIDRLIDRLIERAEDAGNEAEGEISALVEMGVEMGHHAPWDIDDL

B1: Rluc-BST2, Q10589 P40A; L41A; I42A (protein)
chain: MASTSYDYCRVPMEDGDKRCKLLLGIGILVLLIIVILGVAAAIFTIKANSEACRDGLRAVMECRNVTHLLQQELTEAQKGFQDVEAQAATCNHTVMALMASLDAEKAQGQKKVEELEGEITTLNHKLQDASAEVERLRRENQVLSVRIADKKYYPSSQDSS
B2: Rluc-BST2, Q10589 G25A; I26A; G27A (protein)
chain: B1 chain with G25A, I26A, G27A, A40P, A41L, A42I
B3: Rluc-BST2, Q10589 L31A; L32A; I33A (protein)
chain: B1 chain with L31A, L32A, I33A, A40P, A41L, A42I
B4: Rluc-BST2, Q10589 I43A; F44A; T45A (protein)
chain: B1 chain with A40P, A41L, A42I, I43A, F44A, T45A
B5: Rluc-BST2, Q10589 L37A; G38A; V39A (protein)
chain: B1 chain with L37A, G38A, V39A, A40P, A41L, A42I
B6: Rluc-BST2, Q10589 I46A; K47A (protein)
chain: B1 chain with A40P, A41L, A42I, I46A, K47A
B7: Rluc-BST2, Q10589 L22A; L23A; L24A (protein)
chain: B1 chain with L22A, L23A, L24A, A40P, A41L, A42I
B8: Rluc-BST2, Q10589 I28A; L29A; V30A (protein)
chain: B1 chain with I28A, L29A, V30A, A40P, A41L, A42I
B9: Rluc-BST2, Q10589 I34A; V35A; I36A (protein)
chain: B1 chain with I34A, V35A, I36A, A40P, A41L, A42I
B10: Rluc-BST2, Q10589 P40A (protein)
chain: B1 chain with A41L, A42I
B11: Rluc-BST2, Q10589 V35A (protein)
chain: B1 chain with V35A, A40P, A41L, A42I
B12: Rluc-BST2, Q10589 G38A (protein)
chain: B1 chain with G38A, A40P, A41L, A42I
B13: Rluc-BST2, Q10589 V39A (protein)
chain: B1 chain with V39A, A40P, A41L, A42I
B14: Rluc-BST2, Q10589 I36A (protein)
chain: B1 chain with I36A, A40P, A41L, A42I
B15: Rluc-BST2, Q10589 L37A (protein)
chain: B1 chain with L37A, A40P, A41L, A42I
B16: Rluc-BST2, Q10589 I42A (protein)
chain: B1 chain with A40P, A41L
B17: Rluc-BST2, Q10589 I34A (protein)
chain: B1 chain with I34A, A40P, A41L, A42I
B18: Rluc-BST2, Q10589 L41A (protein)
chain: B1 chain with A40P, A42I

Target: T1, Vm-EYFP, P05923
Experiment: BRET assay
Details: chain shown with the change; HEK293T cells; forty-eight hours post-transfection; parent: est. 1.6; read off a plot

| Molecule | response |
| --- | --- |
| B1 | 0.82 |
| B2 | 1.7 |
| B3 | 1.3 |
| B4 | 1.6 |
| B5 | 0.95 |
| B6 | 1.6 |
| B7 | 1.3 |
| B8 | 1.4 |
| B9 | 0.88 |

Same assay, conditions: chain shown with the change; HEK293T cells; parent: est. 1.6; read off a plot

| Molecule | response |
| --- | --- |
| B10 | 1.1 |
| B11 | 1.5 |
| B12 | 1.5 |
| B13 | 1.6 |
| B14 | 1.5 |
| B15 | 0.77 |
| B16 | 1.4 |
| B17 | 1.1 |
| B18 | 0.93 |

target: Rluc-BST2 (UniProt Q10589); experiment: BRET assay; details: HEK293T cells; parent: est. 1.4; read off a plot

| Molecule | response |
| --- | --- |
| Vm-EYFP (from UniProt P05923) A14V | 1.2 |
| Vm-EYFP (from UniProt P05923) A14V; I15A; I16A | 0.76 |
| Vm-EYFP (from UniProt P05923) A18V | 0.52 |
| Vm-EYFP (from UniProt P05923) E28A | 1.1 |
| Vm-EYFP (from UniProt P05923) I5A; V6A; A7V | 0.98 |
| Vm-EYFP (from UniProt P05923) I8A; V9A; A10V | 1.2 |
| Vm-EYFP (from UniProt P05923) I15A | 1.2 |
| Vm-EYFP (from UniProt P05923) I16A | 1.2 |
| Vm-EYFP (from UniProt P05923) I17A | 1.4 |
| Vm-EYFP (from UniProt P05923) I17A; A18V; I19A | 0.58 |
| Vm-EYFP (from UniProt P05923) I19A | 1.2 |
| Vm-EYFP (from UniProt P05923) I26A | 1.3 |
| Vm-EYFP (from UniProt P05923) I26A; I27A; E28A | 0.85 |
| Vm-EYFP (from UniProt P05923) I27A | 1.3 |
| Vm-EYFP (from UniProt P05923) L11A | 0.93 |
| Vm-EYFP (from UniProt P05923) L11A; V12A; V13A | 0.9 |
| Vm-EYFP (from UniProt P05923) S23A; I24A; V25A | 1.1 |
| Vm-EYFP (from UniProt P05923) V12A | 1.3 |
| Vm-EYFP (from UniProt P05923) V13A | 1.3 |
| Vm-EYFP (from UniProt P05923) V20A | 1.3 |
| Vm-EYFP (from UniProt P05923) V20A; V21A; W22A | 0.41 |
| Vm-EYFP (from UniProt P05923) V21A | 1.1 |
| Vm-EYFP (from UniProt P05923) W22A | 0.69 |
